The values below come from patent CN113234160A (GUANGZHOU EXCELMAB BIOMEDICAL TECH CO LTD, dated 2021).

For assay [1], the target named is T1, 人PD-1抗原 (ACRO, Cat.PD-1-H5221) (human, UniProt Q15116 25-167).
T1 construct: Bought antigen coated on ELISA plates; also called human PD-1 antigen; hPD-1
The assay can be described thus: indirect ELISA, human PD-1 coated. For orientation: An ELISA detects its analyte on a solid surface through an enzyme-linked reagent.

Assay [2] addresses T2, 人PD-1抗原 on Jurkat/PD-1 cells (human, UniProt Q15116 25-288).
T2 construct: whole, on cells; Used for the flow cytometry cells and for the Jurkat reporter cells that carry PD-1; also called 过表达人PD-1抗原的Jurkat细胞; Jurkat/hPD-1 NFAT-Luciferase
Description: indirect flow cytometry on Jurkat/PD-1 cells. For orientation: In flow cytometry, cells or beads pass a laser one at a time.

T2 sequence (Q15116 25-288): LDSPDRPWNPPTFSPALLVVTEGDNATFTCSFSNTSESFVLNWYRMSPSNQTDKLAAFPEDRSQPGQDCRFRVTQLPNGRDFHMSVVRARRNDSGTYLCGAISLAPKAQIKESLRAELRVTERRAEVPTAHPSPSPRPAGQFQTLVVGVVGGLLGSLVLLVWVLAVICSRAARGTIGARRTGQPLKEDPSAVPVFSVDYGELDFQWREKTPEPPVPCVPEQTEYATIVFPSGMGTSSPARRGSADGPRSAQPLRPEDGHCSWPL
T1 sequence (Q15116 25-167 limits assumed): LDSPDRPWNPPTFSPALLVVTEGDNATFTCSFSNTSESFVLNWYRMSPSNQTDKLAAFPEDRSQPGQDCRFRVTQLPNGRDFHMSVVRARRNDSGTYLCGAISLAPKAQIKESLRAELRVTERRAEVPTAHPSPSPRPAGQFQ

B1: hmp12 (antibody, V domains shown)
VH: EVQLVESGGGLVKPGGSLRLSCAASGFTFSSYDMSWVRQAPGKGLEWVATISGGGSYTYYADSVKGRFTISRDNAKNSLYLQMNSLRAEDTALYYCASPYAGYFDVWGQGTMVTVSS
VL: DIQMTQSPSSLSASVGDRVTITCSASSSISSNYLHWYQQKPGKAPKLLIYRTSNLQSGVPARFSGSGSGTSYSLTISSLQPEDFATYYCQQGSSIPLTFGQGTKLEIK
notes: also called 人源化抗体hmp12
Take B1: the binding result in assay [1] and in assay [2] was “binds” in each case.
